Earlier results on one substance are cited in paper PMC7072864.

In general, Kd refers to the constant that tells how readily two partners part at equilibrium.

This series deals with EAG1 CNBHD CNBHD (Mus musculus) (UniProt Q60603).

As for “EAG1 PAS domain PAS (from UniProt Q60603)”, the Kd was 13 µM.
